# Molecular target: human TLR4 (human, UniProt O00206 24-839)
# Assay: cell-based or functional assay
# Chain of human TLR4 (O00206 24-839): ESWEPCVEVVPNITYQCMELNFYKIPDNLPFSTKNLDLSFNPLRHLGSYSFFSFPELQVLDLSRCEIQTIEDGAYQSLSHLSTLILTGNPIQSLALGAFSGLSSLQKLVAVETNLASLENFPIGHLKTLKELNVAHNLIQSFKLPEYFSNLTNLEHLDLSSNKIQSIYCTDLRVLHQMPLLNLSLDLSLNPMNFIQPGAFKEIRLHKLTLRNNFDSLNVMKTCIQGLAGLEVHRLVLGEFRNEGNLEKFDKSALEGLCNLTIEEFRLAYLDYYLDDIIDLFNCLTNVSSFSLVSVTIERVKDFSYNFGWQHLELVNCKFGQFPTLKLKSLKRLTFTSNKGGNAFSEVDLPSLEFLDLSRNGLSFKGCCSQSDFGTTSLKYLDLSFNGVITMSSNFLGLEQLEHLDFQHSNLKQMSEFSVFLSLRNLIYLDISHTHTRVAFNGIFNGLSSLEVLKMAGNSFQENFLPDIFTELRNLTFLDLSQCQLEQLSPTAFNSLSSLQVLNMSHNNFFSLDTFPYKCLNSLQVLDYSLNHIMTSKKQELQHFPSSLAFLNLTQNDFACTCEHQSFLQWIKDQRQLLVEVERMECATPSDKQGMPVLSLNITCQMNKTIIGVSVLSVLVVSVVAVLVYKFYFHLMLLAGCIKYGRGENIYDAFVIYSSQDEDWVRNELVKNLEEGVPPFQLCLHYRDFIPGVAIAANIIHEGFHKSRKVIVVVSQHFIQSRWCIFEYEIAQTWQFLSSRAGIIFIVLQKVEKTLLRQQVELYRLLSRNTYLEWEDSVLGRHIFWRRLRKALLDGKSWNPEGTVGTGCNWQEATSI
binder,measurement,value
KSIAYLQMNSLK [PeptideX2],"NF-κB-driven SEAP reporter, human TLR4-transfected HEK293 cells, response relative to E. coli K12 LPS at 100 ng/ml",10 % of the response to E. coli K12 LPS

# — patent publication US20160116469A1 (INSTITUTE OF ARTHRITIS RESEARCH, published 2016)
